Reference: patent US20170081400A1 (CEPHALON, published 2017)
Values belong to the binder of their own block, whether it stands above or below them.

Assays:
[1] = target: T1, human TL1A extracellular domain with N-terminal HIS and FLAG tag (human, UniProt O95150 72-251); test: KinExA, TL1A as CBP, free TL1A captured on 320-587-coated PMMA beads; repeat 1
T1 construct: whole entry named. ~70 kDa fraction purified by gel filtration
T1 sequence: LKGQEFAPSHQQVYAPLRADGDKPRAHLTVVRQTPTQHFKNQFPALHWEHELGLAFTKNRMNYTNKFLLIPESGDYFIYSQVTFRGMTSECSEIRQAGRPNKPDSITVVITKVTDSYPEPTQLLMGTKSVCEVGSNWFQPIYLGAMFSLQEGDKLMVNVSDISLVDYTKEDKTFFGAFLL

[2] = target: T1, human TL1A extracellular domain with …; test: KinExA, TL1A as CBP, free TL1A captured on 320-587-coated PMMA beads; average of two
rabbit TL1A = target: T2, rabbit TL1A (rabbit); test: SPR: 320-587 captured on Protein A, TL1A of the species flowed over
T2 construct: recombinantly produced; whole entry named
T2 chain: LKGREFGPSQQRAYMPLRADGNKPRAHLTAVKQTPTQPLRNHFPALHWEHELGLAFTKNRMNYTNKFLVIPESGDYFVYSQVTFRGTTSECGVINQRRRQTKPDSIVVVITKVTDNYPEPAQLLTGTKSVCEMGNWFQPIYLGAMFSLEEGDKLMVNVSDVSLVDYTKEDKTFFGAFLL

mouse TL1A = target: T3, mouse TL1A (mouse, UniProt Q5UBV8 73-252); test: as above
T3 construct: recombinantly produced; whole entry named
T3 sequence: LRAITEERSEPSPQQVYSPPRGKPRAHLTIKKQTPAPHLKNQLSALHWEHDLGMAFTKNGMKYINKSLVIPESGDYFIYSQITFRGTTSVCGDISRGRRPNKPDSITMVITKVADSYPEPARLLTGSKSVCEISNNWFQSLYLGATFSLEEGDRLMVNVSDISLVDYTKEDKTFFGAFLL

cat TL1A = target: T4, cat TL1A (cat); test: as above
T4 construct: recombinantly produced; whole entry named
T4 chain: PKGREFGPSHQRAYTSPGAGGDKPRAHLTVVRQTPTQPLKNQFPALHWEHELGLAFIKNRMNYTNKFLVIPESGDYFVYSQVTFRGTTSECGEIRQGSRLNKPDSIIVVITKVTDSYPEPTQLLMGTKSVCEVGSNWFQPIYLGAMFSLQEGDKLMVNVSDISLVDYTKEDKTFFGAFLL

cynomolgus monkey TL1A = target: T5, cynomolgus monkey TL1A (cynomolgus monkey, UniProt O95150 72-251 (human entry), limits assumed); test: as above
T5 construct: recombinantly produced; whole entry named
T5 chain: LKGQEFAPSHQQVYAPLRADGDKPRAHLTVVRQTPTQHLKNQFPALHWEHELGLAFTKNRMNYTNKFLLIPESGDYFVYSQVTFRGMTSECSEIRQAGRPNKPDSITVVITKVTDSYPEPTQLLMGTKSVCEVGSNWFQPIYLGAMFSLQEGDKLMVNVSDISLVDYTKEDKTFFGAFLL

rat TL1A = target: T6, rat TL1A (rat, UniProt Q8K3Y7 73-252); test: as above
T6 construct: recombinantly produced; whole entry named
T6 sequence: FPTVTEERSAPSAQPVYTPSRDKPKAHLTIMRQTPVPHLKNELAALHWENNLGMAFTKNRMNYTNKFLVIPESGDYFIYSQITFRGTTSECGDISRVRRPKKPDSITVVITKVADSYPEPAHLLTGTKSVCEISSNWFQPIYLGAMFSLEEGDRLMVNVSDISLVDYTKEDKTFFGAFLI

guinea pig TL1A = target: T7, guinea pig TL1A (guinea pig); test: as above
T7 construct: recombinantly produced; whole entry named
T7 chain: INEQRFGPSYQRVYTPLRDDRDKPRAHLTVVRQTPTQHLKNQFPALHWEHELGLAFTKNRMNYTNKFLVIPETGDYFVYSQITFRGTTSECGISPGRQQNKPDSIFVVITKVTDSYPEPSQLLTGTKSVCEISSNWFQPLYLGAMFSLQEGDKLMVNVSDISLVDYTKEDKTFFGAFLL

dog TL1A = target: T8, dog TL1A (dog); test: as above
T8 construct: recombinantly produced; whole entry named
T8 chain: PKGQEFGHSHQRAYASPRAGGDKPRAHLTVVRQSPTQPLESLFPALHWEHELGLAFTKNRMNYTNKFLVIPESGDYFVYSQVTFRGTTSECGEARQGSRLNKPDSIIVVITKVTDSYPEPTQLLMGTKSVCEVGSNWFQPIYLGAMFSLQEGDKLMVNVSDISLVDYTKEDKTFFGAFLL

[3] = target: T1, human TL1A extracellular domain with …; test: KinExA, TL1A as CBP, free TL1A captured on 320-587-coated PMMA beads; repeat 2
[4] = target: T1, human TL1A extracellular domain with …; test: KinExA, 320-587 as CBP, free 320-587 captured on TL1A-coated Sepharose beads; repeat 2
[5] = target: T9, single-site biotinylated human TL1A (human, UniProt O95150 72-251, single-site biotinylated (site not stated)); test: competition ELISA: antibody dilutions pre-incubated with biotinylated human TL1A (1 µg/ml), added to plate-coated DcR3/Fc; bound TL1A detected with streptavidin-HRP; blocked partner DcR3/Fc [bottom panel]
T9 construct: construct used for biotinylation not described
T9 sequence: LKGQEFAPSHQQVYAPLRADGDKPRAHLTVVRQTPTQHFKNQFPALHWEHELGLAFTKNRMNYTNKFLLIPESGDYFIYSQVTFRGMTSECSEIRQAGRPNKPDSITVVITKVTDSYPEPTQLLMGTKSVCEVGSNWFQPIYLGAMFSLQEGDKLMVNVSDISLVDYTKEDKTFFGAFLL
Method: 1.8. […] DR3/Fc Chimera (R&D Systems) or DcR3/Fc Chimera (R&D Systems) was coated onto a 96-well plate (Maxisorp, Nunc) at a concentration of 2 μg/ml.

[6] = target: T1, human TL1A extracellular domain with …; test: KinExA, 320-587 as CBP, free 320-587 captured on TL1A-coated Sepharose beads; repeat 1
[7] = target: T1, human TL1A extracellular domain with …; test: KinExA, 320-587 as CBP, free 320-587 captured on TL1A-coated Sepharose beads; average of two
[8] = target: T10, human TL1A extracellular domain with N-terminal HIS and FLAG tag (human, UniProt O95150 72-251); test: SPR Run 8, antibody on Protein A, TL1A 5 ug/mL, timepoint 44
T10 construct: the whole entry is named; also called TNFSF15
T10 sequence: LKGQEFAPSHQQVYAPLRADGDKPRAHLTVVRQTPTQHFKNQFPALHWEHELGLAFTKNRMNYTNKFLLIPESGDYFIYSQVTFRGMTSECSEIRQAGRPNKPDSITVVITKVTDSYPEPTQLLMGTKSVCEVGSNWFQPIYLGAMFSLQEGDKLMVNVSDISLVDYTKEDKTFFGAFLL
Excerpt: (§1) 1.5. Antibody expression and antigen binding as determined by SPR. Using a CM5 sensor chip (GE Healthcare) Protein A (Pierce) was coupled to the chip surface using an amine coupling kit (GE Healthcare). Protein A was coupled on flow cell 1 and 2 (or alternatively 3 and 4) using a BIACORE® T200. […] The amount of supernatant or purified protein (as well as the concentration) injected during the capture stage varied between runs and is specified in the header of the Tables 3-11. At the end of injection of the supernatant or purified antibody the change in response units was measured. This value was reported as Capture Level in Tables 3-11. […] The response units were measured prior to the end of the dissociation phase. […] The sensorgrams were double referenced (flow cell 2 is subtracted from flow cell 1 and a buffer blank). As there were a large number of antibody variants to screen, these were screened across different runs (Tables 3-11). […] A summary of the conditions used in each run is below:
(§2) 2.1. […] In some experiment the antibodies were purified using Protein A chromatography (See 1.4) and purified antibodies were used in BIACORE® (GE Healthcare) experiments.

[9] = target: T10, human TL1A extracellular domain with …; test: KinExA, PMMA beads coated with 320-587, TL1A as the CBP, average of 3 assays (SD 13.5)
Method: (§3) Using the time to reach equilibrium determined above, all curves were allowed to come to equilibrium in a 25° C. incubator for 3 days.

[10] = target: T10, human TL1A extracellular domain with …; test: KinExA, PMMA beads coated with 320-587, TL1A as the CBP, assay 1
Method: as §3

[11] = target: T10, human TL1A extracellular domain with …; test: KinExA, Sepharose beads coated with TL1A, 320-587 as the CBP, assay 5
[12] = target: T10, human TL1A extracellular domain with …; test: KinExA, Sepharose beads coated with TL1A, 320-587 as the CBP, assay 4
[13] = target: T10, human TL1A extracellular domain with …; test: KinExA, PMMA beads coated with 320-587, TL1A as the CBP, assay 3
Method: as §3

[14] = target: T10, human TL1A extracellular domain with …; test: KinExA, Sepharose beads coated with TL1A, 320-587 as the CBP, assay 3
[15] = target: T10, human TL1A extracellular domain with …; test: cell-based or functional assay
[16] = target: T10, human TL1A extracellular domain with …; test: KinExA, PMMA beads coated with 320-587, TL1A as the CBP, assay 2
Method: as §3

[17] = target: T10, human TL1A extracellular domain with …; test: SPR Run 8, antibody on Protein A, TL1A 5 ug/mL, timepoint 590
Excerpt: as §1, §2

[18] = target: T10, human TL1A extracellular domain with …; test: KinExA, Sepharose beads coated with TL1A, 320-587 as the CBP, assay 2
[19] = target: T10, human TL1A extracellular domain with …; test: KinExA, Sepharose beads coated with TL1A, 320-587 as the CBP, assay 1
[20] = target: T10, human TL1A extracellular domain with …; test: KinExA, Sepharose beads coated with TL1A, 320-587 as the CBP, average of 5 assays (SD 8.33)

kon [1]: 611000 M⁻¹ s⁻¹
kon [2]: 593000 M⁻¹ s⁻¹
binding result (rabbit TL1A): binds
binding result (mouse TL1A): binds
binding result (cat TL1A): binds
binding result (cynomolgus monkey TL1A): binds
binding result (rat TL1A): binds
binding result (guinea pig TL1A): binds
binding result (dog TL1A): binds
kon [3]: 574000 M⁻¹ s⁻¹
kon [4]: 745000 M⁻¹ s⁻¹
IC50 (read off the curve) [5]: ~1 µg/mL
kon [6]: 835000 M⁻¹ s⁻¹
kon [7]: 790000 M⁻¹ s⁻¹
B1: 320-587 (antibody, name in Kabat numbering, V domains shown)
VH: QVQLVQSGAEVKKPGASVKVSCKASGYTFTSYDINWVRQAPGQGLEWMGWLNPNSGYTGYAQKFQGRVTMTADRSTSTAYMELSSLRSEDTAVYYCAREVPETAAFEYWGQGTLVTVSS
VL: QSVLTQPPSVSGAPGQRVTISCTSSSSDIGAGLGVHWYQQLPGTAPKLLIEGYYNRPSGVPDRFSGSKSGTSASLTITGLLPEDEGDYYCQSWDGTLSALFGGGTKLTVLG
notes: human IgG1, lambda

TL1A Binding Level (Early) [8]: 123 RU
Kd [9]: 0.0415 nM
Kd [10]: 0.0334 nM
Kd [11]: 0.0337 nM
Kd [12]: 0.0324 nM
Kd [13]: 0.0341 nM
Kd [14]: 0.0463 nM
Antibody IC50, TL1A induced caspase potency assay in TF-1 cells [15]: 0.001 µg/mL
Fold improvement over 320-179, TL1A induced caspase potency assay in TF-1 cells [15]: 40 fold
Kd [16]: 0.0571 nM
TL1A Binding Level (Late) [17]: 122 RU
Kd [18]: 0.052 nM
Kd [19]: 0.0404 nM
Kd [20]: 0.041 nM
B2: 320-587 (antibody, name in Kabat numbering, V domains shown)
VH: QVQLVQSGAEVKKPGASVKVSCKASGYTFTSYDINWVRQAPGQGLEWMGWLNPNSGYTGYAQKFQGRVTMTADRSTSTAYMELSSLRSEDTAVYYCAREVPETAAFEYWGQGTLVTVSS
VL: QSVLTQPPSVSGAPGQRVTISCTSSSSDIGAGLGVHWYQQLPGTAPKLLIEGYYNRPSGVPDRFSGSKSGTSASLTITGLLPEDEGDYYCQSWDGTLSALFGGGTKLTVLG
notes: full-length human IgG1, lambda
